Measured values reported in the supplement of paper PMC10724198.
± gives the standard deviation of the averaged measurements.

Tested on: Saccharomyces cerevisiae
Assay: protein stability index of tFT-peptide fusion (C-terminal peptide) (PSI (0-1 scale)); higher = more stable (slower turnover)
Conditions: genetic background: cdc34-1; temperature: 37 C
Protocol: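 MPS profiling in S. cerevisiae of the tFT-X12 degron library: putative degron peptides plus stable controls, 12 aa, fused to the C-terminus of a sfGFP-mCherry timer. Cells are FACS-sorted into 8 mCherry/sfGFP bins and deep-sequenced. PSI runs from 0 (unstable) to 1 (stable). Backgrounds are wild type, das1Δ and doa10Δ at 30 °C, and wild type, das1Δ, cdc34-1 and cdc53-1 at 37 °C; 2-3 technical replicates each.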
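Further: PSI is a weighted mean of sequencing reads over stability bins, variants kept only with over 10 reads, mCherry proximal and sfGFP distal, peptide attached via GGGS linker.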

Row | Sequence | protein stability index
1 | PIHILTHTYIGR | 0.669 ± 0.028
2 | PILRGRPTPAIL | 0.691 ± 0.031
3 | PLLVVPVPRALY | 0.675 ± 0.082
4 | PLYFSVFSLLFL | 0.522 ± 0.03
5 | PPLLLFLSLAFL | 0.322 ± 0.02
6 | PPPLPPPSPSRP | 0.66 ± 0.024
7 | PPPPPPLPSSFP | 0.679 ± 0.024
8 | PPPYPPPPARSL | 0.6336 ± 0.00079
9 | PPRPLHPPCRPP | 0.64 ± 0.021
10 | PPSPPLPPPSPF | 0.671 ± 0.013
11 | PPSPPPPPPSPF | 0.695 ± 0.031
12 | PRHERPPRDNGH | 0.674 ± 0.041
13 | PRPSPPLPPPSS | 0.665 ± 0.082
14 | PRRVTVPGVPPL | 0.672 ± 0.018
15 | PRSLHVLSRFLP | 0.692 ± 0.06
16 | PSRRLRHFATSP | 0.623 ± 0.058
17 | PTFSPSLPPPRS | 0.632 ± 0.03
18 | PVTAVYFVLYIW | 0.134 ± 0.0025
19 | PYLSAPLVATLS | 0.378 ± 0.014
20 | QDQWINTSLELS | 0.677 ± 0.018
21 | QLIDVGLLNCAA | 0.499 ± 0.044
22 | QWTVRNQGVMQR | 0.699 ± 0.018
23 | QYRLMQKKIVNI | 0.644 ± 0.022
24 | RAEASFFLPKVG | 0.675 ± 0.046
25 | RAQQRVKERYIE | 0.74 ± 0.046
26 | RCIRRWPYILKL | 0.576 ± 0.017

Row | Sequence | protein stability index
27 | RCSLFAKQVVSL | 0.381 ± 0.032
28 | RERRISRIPCLS | 0.594 ± 0.058
29 | RFHFAAPPHRPS | 0.703 ± 0.024
30 | RFIYYCVDVFFS | 0.0337 ± 0.01
31 | RFLACSIRYLVY | 0.294 ± 0.012
32 | RFRFRRTCLYAT | 0.5745 ± 0.0034
33 | RGAVRVAWYPVL | 0.699 ± 0.00098
34 | RGDCFLVLCVWR | 0.499 ± 0.022
35 | RGGPPPCPLLAA | 0.68 ± 0.036
36 | RGGWVVVLGCVG | 0.634 ± 0.034
37 | RGLWAAIPRKCT | 0.669 ± 0.04
38 | RGPSQVIVAFFV | 0.663 ± 0.027
39 | RGSLLRWFLAAQ | 0.628 ± 0.031
40 | RGSRLVPRLLRP | 0.686 ± 0.028
41 | RGWWWFVVVLCR | 0.165 ± 0.0082
42 | RHIRGLNLIKLI | 0.316 ± 0.092
43 | RHQTDIVTATQK | 0.694 ± 0.05
44 | RHVFLRIKVLNL | 0.564 ± 0.11
45 | RIFRCYSFYVVV | 0.496 ± 0.047
46 | RILFSPSTFYLF | 0.665 ± 0.048
47 | RIRRVMHLYTNN | 0.475 ± 0.027
48 | RISYKTKINELI | 0.653 ± 0.038
49 | RIVLRPPFNSVA | 0.619 ± 0.015
50 | RKKKRNKKKMIM | 0.716 ± 0.058
51 | RLDAPGLSRTEN | 0.66 ± 0.04
52 | RLFYRLSFVYFL | 0.398 ± 0.025

Row | Sequence | protein stability index
53 | RLLLLLTCIIYI | 0.173 ± 0.006
54 | RLPVMFWFVCSF | 0.561 ± 0.053
55 | RLVRILSTILLN | 0.487 ± 0.079
56 | RLVVSRNFYRLC | 0.622 ± 0.054
57 | RLWLPLSLVLWV | 0.376 ± 0.05
58 | RMCEILGIRHLI | 0.611 ± 0.031
59 | RMCPWVSVRVGV | 0.558 ± 0.028
60 | RPRRARLPNFLA | 0.37 ± 0.0066
61 | RPRVAGLMTLVS | 0.698 ± 0.013
62 | RRSRLYKKAGLM | 0.609 ± 0.011
63 | RSIVFRVSRRLN | 0.65 ± 0.074
64 | RTKIKKKIMKNI | 0.621 ± 0.051
65 | RVCCLSFFFVFL | 0.445 ± 0.022
66 | RVCYQIAISLPI | 0.546 ± 0.0067
67 | RVDVSVLWNRRS | 0.655 ± 0.045
68 | RVEPYDLARRVL | 0.725 ± 0.038
69 | RVITRMLLMVIR | 0.318 ± 0.056
70 | RVPCCLSFVPVC | 0.508 ± 0.032
71 | RVSECVSVVGWM | 0.678 ± 0.082
72 | RVYLLGLFVRSG | 0.552 ± 0.035
73 | RWCLELLWITSC | 0.325 ± 0.013
74 | RWPLVIRSLIVF | 0.196 ± 0.0088
75 | RWRRWCVVLFVV | 0.197 ± 0.043
76 | RYVFAFRRNYFC | 0.448 ± 0.089
77 | RYVVVGACIQVV | 0.421 ± 0.015
78 | SDAIKITFIIHN | 0.687 ± 0.043

Same assay, conditions: genetic background: cdc53-1; temperature: 37 C

Row | Sequence | protein stability index
79 | PIHILTHTYIGR | 0.7695 ± 0.00066
80 | PILRGRPTPAIL | 0.731 ± 0.013
81 | PLLVVPVPRALY | 0.72 ± 0.0074
82 | PLYFSVFSLLFL | 0.556 ± 0.048
83 | PPLLLFLSLAFL | 0.407 ± 0.012
84 | PPPLPPPSPSRP | 0.7072 ± 0.0012
85 | PPPPPPLPSSFP | 0.749 ± 0.0084
86 | PPPYPPPPARSL | 0.6951 ± 0.0027
87 | PPRPLHPPCRPP | 0.6975 ± 0.00072
88 | PPSPPLPPPSPF | 0.773 ± 0.019
89 | PPSPPPPPPSPF | 0.7371 ± 0.0055
90 | PRHERPPRDNGH | 0.72232 ± 0.00022
91 | PRPSPPLPPPSS | 0.712 ± 0.011
92 | PRRVTVPGVPPL | 0.736 ± 0.033
93 | PRSLHVLSRFLP | 0.7371 ± 0.0014
94 | PSRRLRHFATSP | 0.68 ± 0.021
95 | PTFSPSLPPPRS | 0.715 ± 0.012
96 | PVTAVYFVLYIW | 0.231 ± 0.017
97 | PYLSAPLVATLS | 0.424 ± 0.025
98 | QDQWINTSLELS | 0.759 ± 0.0081
99 | QLIDVGLLNCAA | 0.557 ± 0.033
100 | QWTVRNQGVMQR | 0.743 ± 0.0096
101 | QYRLMQKKIVNI | 0.743 ± 0.048
102 | RAEASFFLPKVG | 0.711 ± 0.0076
103 | RAQQRVKERYIE | 0.729 ± 0.014
104 | RCIRRWPYILKL | 0.667 ± 0.0087

Row | Sequence | protein stability index
105 | RCSLFAKQVVSL | 0.442 ± 0.029
106 | RERRISRIPCLS | 0.678 ± 0.01
107 | RFHFAAPPHRPS | 0.744 ± 0.0012
108 | RFIYYCVDVFFS | 0.147 ± 0.025
109 | RFLACSIRYLVY | 0.425 ± 0.037
110 | RFRFRRTCLYAT | 0.588 ± 0.077
111 | RGAVRVAWYPVL | 0.737 ± 0.01
112 | RGDCFLVLCVWR | 0.535 ± 0.015
113 | RGGPPPCPLLAA | 0.698 ± 0.032
114 | RGGWVVVLGCVG | 0.6292 ± 0.0044
115 | RGLWAAIPRKCT | 0.74108 ± 0.00026
116 | RGPSQVIVAFFV | 0.6843 ± 0.0038
117 | RGSLLRWFLAAQ | 0.707 ± 0.012
118 | RGSRLVPRLLRP | 0.705 ± 0.012
119 | RGWWWFVVVLCR | 0.139 ± 0.0061
120 | RHIRGLNLIKLI | 0.672 ± 0.034
121 | RHQTDIVTATQK | 0.724 ± 0.026
122 | RHVFLRIKVLNL | 0.644 ± 0.051
123 | RIFRCYSFYVVV | 0.587 ± 0.029
124 | RILFSPSTFYLF | 0.761 ± 0.037
125 | RIRRVMHLYTNN | 0.705 ± 0.071
126 | RISYKTKINELI | 0.735 ± 0.034
127 | RIVLRPPFNSVA | 0.727 ± 0.017
128 | RKKKRNKKKMIM | 0.734 ± 0.019
129 | RLDAPGLSRTEN | 0.68 ± 0.011
130 | RLFYRLSFVYFL | 0.4469 ± 0.0038

Row | Sequence | protein stability index
131 | RLLLLLTCIIYI | 0.219 ± 0.023
132 | RLPVMFWFVCSF | 0.641 ± 0.024
133 | RLVRILSTILLN | 0.638 ± 0.038
134 | RLVVSRNFYRLC | 0.723 ± 0.017
135 | RLWLPLSLVLWV | 0.3824 ± 0.0031
136 | RMCEILGIRHLI | 0.742 ± 0.016
137 | RMCPWVSVRVGV | 0.5891 ± 0.0027
138 | RPRRARLPNFLA | 0.64023 ± 0.0001
139 | RPRVAGLMTLVS | 0.686 ± 0.052
140 | RRSRLYKKAGLM | 0.7374 ± 0.0017
141 | RSIVFRVSRRLN | 0.729 ± 0.019
142 | RTKIKKKIMKNI | 0.718 ± 0.032
143 | RVCCLSFFFVFL | 0.581 ± 0.054
144 | RVCYQIAISLPI | 0.571 ± 0.027
145 | RVDVSVLWNRRS | 0.75995 ± 0.0007
146 | RVEPYDLARRVL | 0.768 ± 0.028
147 | RVITRMLLMVIR | 0.365 ± 0.031
148 | RVPCCLSFVPVC | 0.5131 ± 0.004
149 | RVSECVSVVGWM | 0.723 ± 0.025
150 | RVYLLGLFVRSG | 0.61 ± 0.014
151 | RWCLELLWITSC | 0.451 ± 0.013
152 | RWPLVIRSLIVF | 0.226 ± 0.0098
153 | RWRRWCVVLFVV | 0.307 ± 0.021
154 | RYVFAFRRNYFC | 0.682 ± 0.0095
155 | RYVVVGACIQVV | 0.447 ± 0.0078
156 | SDAIKITFIIHN | 0.632 ± 0.024
